Reference: patent US20240285753A1 (DUKE UNIVERSITY, published 2024)
Numbering of substitutions follows the chain as printed. Read-outs that look alike come from different tables or passages of the source.

Experiments:
[1] = target: SARS-CoV-2 spike (WA-2, 2P) (SARS-CoV-2, UniProt P0DTC2 14-1208)
S2hlx-Ex34 [2] = target: T1, S2hlx-Ex34; experiment: SPR, mAb captured, scaffold as analyte
T1 chain: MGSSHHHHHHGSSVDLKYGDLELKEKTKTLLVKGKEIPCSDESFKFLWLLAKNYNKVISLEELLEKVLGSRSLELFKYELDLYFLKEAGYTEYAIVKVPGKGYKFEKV

S2hlx-Ex37 [3] = target: T2, S2hlx-Ex37; experiment: SPR, mAb captured, scaffold as analyte
T2 chain: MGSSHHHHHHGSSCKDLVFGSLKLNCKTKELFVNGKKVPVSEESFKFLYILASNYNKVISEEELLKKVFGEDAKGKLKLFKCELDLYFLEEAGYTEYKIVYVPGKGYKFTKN

S2hlx-Ex54 [4] = target: T3, S2hlx-Ex54; experiment: SPR, mAb captured, scaffold as analyte
T3 chain: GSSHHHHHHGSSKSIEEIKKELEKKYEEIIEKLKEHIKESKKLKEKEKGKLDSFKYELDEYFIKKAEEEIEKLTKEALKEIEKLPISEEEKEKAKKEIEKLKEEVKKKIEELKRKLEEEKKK

S2hlx-Ex15 F1148A = target: T4, S2hlx-Ex15 F1148A; experiment: ELISA; antigen coated, mAb titrated
T4 epitope scaffold: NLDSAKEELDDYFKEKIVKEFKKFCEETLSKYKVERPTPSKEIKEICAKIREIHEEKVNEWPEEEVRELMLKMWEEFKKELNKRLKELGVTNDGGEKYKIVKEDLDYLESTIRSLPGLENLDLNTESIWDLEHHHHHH

S2hlx-Ex15 [5] = target: T5, S2hlx-Ex15; experiment: ELISA; antigen coated, mAb titrated
T5 chain: T4 epitope scaffold with A5F

S2hlx-Ex2-Trx = experiment: ELISA, coated antigen, mAb titrated
S2hlx-Ex4-Trx = experiment: ELISA, coated antigen, mAb titrated
S2hlx-Ex46 [6] = target: T6, S2hlx-Ex46; experiment: ELISA; antigen coated, mAb titrated
T6 epitope scaffold: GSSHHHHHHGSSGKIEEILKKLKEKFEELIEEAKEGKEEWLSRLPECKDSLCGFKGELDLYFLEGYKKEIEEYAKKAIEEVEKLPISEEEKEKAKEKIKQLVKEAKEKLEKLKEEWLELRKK

S2hlx-Ex25 [7] = target: T7, S2hlx-Ex25; experiment: ELISA; antigen coated, mAb titrated
T7 chain: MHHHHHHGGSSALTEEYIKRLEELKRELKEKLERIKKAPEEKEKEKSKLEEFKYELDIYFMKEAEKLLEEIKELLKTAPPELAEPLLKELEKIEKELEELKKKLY

S2hlx-Ex34 [8] = target: T1, S2hlx-Ex34; experiment: ELISA; antigen coated, mAb titrated
S2hlx-Ex54 [9] = target: T3, S2hlx-Ex54; experiment: ELISA; antigen coated, mAb titrated
S2hlx-Ex15 [10] = target: T5, S2hlx-Ex15; experiment: SPR, mAb captured, antigen as analyte
S2hlx-Ex17 [11] = target: T8, S2hlx-Ex17; experiment: SPR, mAb captured, antigen as analyte
T8 chain: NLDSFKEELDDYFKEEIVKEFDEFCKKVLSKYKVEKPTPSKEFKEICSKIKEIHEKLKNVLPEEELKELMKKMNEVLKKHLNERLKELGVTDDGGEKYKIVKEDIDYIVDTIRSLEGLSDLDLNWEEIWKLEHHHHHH

S2hlx-Ex20 [12] = target: T9, S2hlx-Ex20; experiment: SPR, mAb captured, antigen as analyte
T9 chain: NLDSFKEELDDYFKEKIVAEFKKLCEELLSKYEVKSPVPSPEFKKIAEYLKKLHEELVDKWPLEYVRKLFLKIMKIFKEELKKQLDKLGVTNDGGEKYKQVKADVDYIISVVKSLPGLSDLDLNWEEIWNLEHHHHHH

S2hlx-Ex15 [13] = target: T5, S2hlx-Ex15; experiment: SPR, mAb captured, antigen as analyte
S2hlx-Ex17 [14] = target: T8, S2hlx-Ex17; experiment: SPR, mAb captured, antigen as analyte
S2hlx-Ex20 [15] = target: T9, S2hlx-Ex20; experiment: SPR, mAb captured, antigen as analyte
S2hlx-Ex8-Trx = target: T10, S2hlx-Ex8-Trx; experiment: SPR, mAb captured, antigen as analyte
T10 chain: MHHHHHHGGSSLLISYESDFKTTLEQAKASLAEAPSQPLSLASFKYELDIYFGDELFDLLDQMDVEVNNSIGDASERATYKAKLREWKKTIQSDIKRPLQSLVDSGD

S2hlx-Ex25 [16] = target: T7, S2hlx-Ex25; experiment: SPR, mAb captured, antigen as analyte
S2hlx-Ex34 [17] = target: T1, S2hlx-Ex34; experiment: SPR, mAb captured, antigen as analyte
S2hlx-Ex25 [18] = target: T7, S2hlx-Ex25; experiment: ELISA; antigen coated, mAb titrated
S2hlx-Ex34 [19] = target: T1, S2hlx-Ex34; experiment: ELISA; antigen coated, mAb titrated
S2hlx-Ex35 = target: T11, S2hlx-Ex35; experiment: ELISA; antigen coated, mAb titrated
T11 chain: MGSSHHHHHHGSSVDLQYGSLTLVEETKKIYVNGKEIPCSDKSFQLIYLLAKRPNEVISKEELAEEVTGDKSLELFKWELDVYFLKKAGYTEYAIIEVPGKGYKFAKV

S2hlx-Ex46 [20] = target: T6, S2hlx-Ex46; experiment: SPR, single cycle; mAb captured on Protein A, epitope scaffold as analyte
S2hlx-Ex37 [21] = target: T2, S2hlx-Ex37; experiment: as above
S2hlx-Ex54 [22] = target: T3, S2hlx-Ex54; experiment: as above
FP-13 = target: T12, FP-13; experiment: ELISA, coated antigen, mAb titrated
T12 epitope scaffold: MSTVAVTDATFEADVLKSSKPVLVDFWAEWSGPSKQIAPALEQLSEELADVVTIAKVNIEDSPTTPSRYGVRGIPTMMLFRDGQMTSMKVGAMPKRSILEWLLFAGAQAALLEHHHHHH

[23] = target: T13, SARS-CoV-2 spike (WA-2, 2P) (SARS-CoV-2, UniProt P0DTC2 14-1208); experiment: ELISA, coated spike, mAb titrated
[24] = target: T13, SARS-CoV-2 spike (WA-2, 2P); experiment: ELISA, coated spike, mAb titrated; remark: listed apart in the source
[25] = target: T13, SARS-CoV-2 spike (WA-2, 2P); experiment: ELISA, coated antigen, mAb titrated

B1: CC40.8 mAb (antibody, V domains shown)
VH: EVQLLESGGGLVQPGGSLRLSCAASGFTFSSYVMTWARQAPGKGLEWVSAISGTGYTYYADSVKGRFTVSRDNSKNTLFLQMSSLRAEDTAVYYCAITMAPVVWGQGTTVTVSS
VL: SYELTQPPSVSVSPGQTARITCSGDALPKRYAYWYQQKSGQAPILVIYEDKKRPSGIPERLSGSKSGTVATLTISGAQVEDEADYYCYSTDSSGNHAVFGGGTQLTVL
For B1, the Kd [1] was 2.7 nM, the Kd (S2hlx-Ex34 [2]) was 486 nM and the Kd (S2hlx-Ex37 [3]) was 849 nM. The Kd (S2hlx-Ex54 [4]) was 150 nM, the “EC50 (read off the curve)” value (S2hlx-Ex15 F1148A) was ~0.02 µg/mL and the “EC50 (read off the curve)” value (S2hlx-Ex15 [5]) was ~0.02 µg/mL. The “EC50 (read off the curve)” value (S2hlx-Ex2-Trx) was ~0.1 µg/mL, the “EC50 (read off the curve)” value (S2hlx-Ex4-Trx) was ~0.05 µg/mL and the “EC50 (read off the curve)” value (S2hlx-Ex46 [6]) was ~0.2 µg/mL. The “EC50 (read off the curve)” value (S2hlx-Ex25 [7]) was ~0.2 µg/mL, the “EC50 (read off the curve)” value (S2hlx-Ex34 [8]) was ~0.4 µg/mL and the “EC50 (read off the curve)” value (S2hlx-Ex54 [9]) was ~0.04 µg/mL. It also gave a Kd (S2hlx-Ex15 [10]) of 3.4 nM, a Kd (S2hlx-Ex17 [11]) of 27.1 nM and a Kd (S2hlx-Ex20 [12]) of 10.6 nM. The Kd (S2hlx-Ex15 [13]) was 3.4 nM, the Kd (S2hlx-Ex17 [14]) was 27.1 nM and the Kd (S2hlx-Ex20 [15]) was 10.6 nM. It also gave a Kd (S2hlx-Ex8-Trx) of 1230 nM, a Kd (S2hlx-Ex25 [16]) of 12100 nM and a Kd (S2hlx-Ex34 [17]) of 3880 nM. The “EC50 (read off the curve)” value (S2hlx-Ex25 [18]) was ~0.01 µg/mL, the “EC50 (read off the curve)” value (S2hlx-Ex34 [19]) was ~0.1 µg/mL and the “EC50 (read off the curve)” value (S2hlx-Ex35) was ~0.8 µg/mL. For the same binder, the Kd (S2hlx-Ex46 [20]) was 21500 nM, the Kd (S2hlx-Ex37 [21]) was 849 nM and the Kd (S2hlx-Ex54 [22]) was 150 nM.

B2: COV44-79 (antibody, V domains shown)
VH: QVQLVESGGGVVQPGRSLRLSCAASGLTFSGYAMHWVRQAPGKGLEWVAVISRDARNKYYADSVKGRFTISRDNSKKTVYLEMNSLRVEDTAVYYCAILIIPGITEPGSPDALDIWGQGTMVSVSS
VL: DIQMTQSPSSMSASVGDRVTITCRASQDISKWLAWYQQRPGKAPKLLIYAASSLQSGVPSRFSGSGSGTDFTLTISSLQPEDFATYYCQQASSFPWSITFGQGTRLEIR
For B2, the “EC50 (read off the curve)” value (FP-13) was ~3 µg/mL.

B3: DH1498 (antibody, V domains shown)
VH: QVQLQESGPGLVKPSETLSLTCAVSGGSVSSDTYYWSWIRQPPGKGLEWIGYIYNSGSTNYNPSLKSRVTISVDTSKSQFSLNLGSVTAADTAVYYCAREGAGTYPPKNDAFDIWGQGTLVTVSS
VL: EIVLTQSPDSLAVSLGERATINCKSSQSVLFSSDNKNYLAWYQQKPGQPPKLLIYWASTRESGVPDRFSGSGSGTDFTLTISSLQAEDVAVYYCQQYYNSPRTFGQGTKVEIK
In the case of B3, the “EC50 (read off the curve)” value [23] is reported as ~0.04 µg/mL.

B4: DH1509 (antibody, V domains shown)
VH: QVQLVESGGGVVQPGRSLRLSCAASGFTLSSHGIHWVRQAPGKGLEWVAVTSFDGRNKKFGDSVKGRFTISRDNSKNTVYLQMNSLRTEDTAVYYCAKDWGDDYSRWYFDLWGRGTLVTVSS
VL: DIQMTQSPSSLSASVGDRVTITCQASHDITKYLNWYQQKPGRAPKLLIYDASNLKTGVPSRFSGSGSGTDFTFTITSLQPEDLATYYCQQSDVLPITFGQGTRLEIK
With B4 the “EC50 (read off the curve)” value [24] was ~0.6 µg/mL.

B5: inferred UCA of DH1501.1, DH1501.2 and DH1501.3 (antibody, V domains shown)
VH: QVQLVQSGAEVKKPGASVKVSCKASGYTFTSYYMHWVRQAPGQGLEWMGIINPSGGSTSYAQKFQGRVTMTRDTSTSTVYMELSSLRSEDTAVYYCARMSRYGAFDIWGQGIMVTVSS
VL: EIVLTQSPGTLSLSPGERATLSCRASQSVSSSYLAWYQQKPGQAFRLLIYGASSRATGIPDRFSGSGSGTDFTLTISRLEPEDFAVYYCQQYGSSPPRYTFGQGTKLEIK
For B5, the “EC50 (read off the curve)” value [25] was ~0.02 µg/mL.

B6: Cov44-26 (antibody, V domains shown)
VH: QVQLVQSGAEVKKPGASVKVSCKASGYTFSNFYMNWVRQAPGQGLEWVGLISPSAGYTAYAQMFQGRVTMTRDTSTSTVYMELSSLRSEDTAVYYCARVAVAGPNDYWGQGTLVTVSS
VL: EIVLTQSPGTLSLSPGERATLSCRASQSISSSYLAWYQQKPGQAPRLVIFAASTRATGIPDRFSGSGSGTDFTLTITRLEPEDFALYYCQHYRSSPPLWTFGQGTKVEIR
With B6 the “EC50 (read off the curve)” value (S2hlx-Ex25 [7]) was ~0.02 µg/mL.
